Measurements taken from publication PMC7515635 (eLife, 2020).
“And” between values parts separate entries of the source, which are not always exact repeats. Equal entries are not always repeated.

T1: HIS6-ATG8A (Arabidopsis thaliana, UniProt Q8LEM4 1-117)
T1 construct: ATG8A, Arabidopsis thaliana; source: E. coli Rosetta2(DE3)pLysS, purified (HisTrap, ion exchange, SEC)
T1 sequence (looked up): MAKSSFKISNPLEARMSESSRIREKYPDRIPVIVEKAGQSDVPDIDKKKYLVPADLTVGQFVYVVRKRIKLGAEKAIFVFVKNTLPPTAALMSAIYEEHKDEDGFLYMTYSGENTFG

B1: GST-ATG8A (natural protein, Arabidopsis thaliana, UniProt Q8LEM4 1-117, looked up)
chain: T1 sequence (looked up)
notes: ATG8A, Arabidopsis thaliana; printed MW of GST-ATG8A 42366.85 Da; also called AtATG8; source: E. coli recombinant expression; bacterial lysate (pull-downs), recombinant protein (SPR, peptide array); not shown: GST, N-terminal, kept
B2: At-sAIM peptide (peptide)
peptide: EPLDFDIDWDLEEEM
notes: peptide with a shuffled AIM (IDWD) in the frame of the AIM wt peptide
B3: HIS6-AtC53 (natural protein)
chain: not shown
notes: C53, Arabidopsis thaliana; Monomeric by native MS; source: E. coli Rosetta2(DE3)pLysS, purified (HisTrap, ion exchange, SEC)
B4: Hs-sAIM peptide (peptide)
peptide: EPLDFDIDWGLEEEM
notes: peptide with a shuffled AIM (IDWG) in the frame of the AIM wt peptide; also called Hs-sAIMC53
B5: GST-GABARAP (natural protein, human, UniProt O95166 1-117, looked up)
chain: MKFVYKEEHPFEKRRSEGEKIRKKYPDRVPVIVEKAPKARIGDLDKKKYLVPSDLTVGQFYFLIRKRIHLRAEDALFFFVNNVIPPTSATMGQLYQEHHEEDFFLYIAYSDESVYGL
notes: GABARAP, human ATG8 isoform; printed MW of GST-GABARAP 42458.87 Da; source: E. coli recombinant expression; bacterial lysate (pull-downs), recombinant protein (SPR); not shown: GST, N-terminal, kept
B6: AtC53-IDR (purified) (domain or fragment, Arabidopsis thaliana, UniProt Q9FG23 264-341, looked up)
chain: ANGTDAAADSIDWDITVETPEIDWDVSMVEEVDSGNDLGSYEIVNASDIPENSPFKVEESQGLEVDVSEISWDVSVET
notes: intrinsically disordered region of Arabidopsis C53; The expected mass (about 80 residues) is too small for 239-372, the limits of MBP-AtC53^IDR; source: E. coli Rosetta2(DE3)pLysS, purified

Tests used:
Conditions in all cases: both partners purified
[1] = target: B3; assay: SPR; competition, apparent; GST-GABARAP or GST-ATG8A captured; increasing AIM wt peptide premixed with 10 µM HsC53 or AtC53; 25°C, 50 mM sodium phosphate pH 7.0, 100 mM NaCl, 0.05% Tween-20, 0.1% BSA
[2] = target: T1, HIS6-ATG8A; assay: ITC; 25°C, 50 mM sodium phosphate pH 7.0, 100 mM NaCl; cell 40 µM GABARAP or ATG8A, syringe 600 µM peptide or 250 µM IDR; one-set-of-sites model
[3] = target: T1, HIS6-ATG8A; assay: native MS; proteins exchanged into ammonium acetate, nanoelectrospray, Synapt G2Si; C53 1-5 µM or IDR 2.5 µM with 5-20 µM ATG8A or GABARAP
[4] = target: T2, HIS6-GABARAP (human, UniProt O95166 1-117); assay: ITC; 25°C, 50 mM sodium phosphate pH 7.0, 100 mM NaCl; cell 40 µM GABARAP or ATG8A, syringe 600 µM peptide or 250 µM IDR; one-set-of-sites model
T2 construct: GABARAP, human ATG8 isoform; source: E. coli Rosetta2(DE3)pLysS, purified (HisTrap, ion exchange, SEC)

[5] = target: T3, HIS6-HsC53 (human, UniProt Q96JB5 1-506); assay: SPR; competition, apparent; GST-GABARAP or GST-ATG8A captured; increasing AIM wt peptide premixed with 10 µM HsC53 or AtC53; 25°C, 50 mM sodium phosphate pH 7.0, 100 mM NaCl, 0.05% Tween-20, 0.1% BSA
T3 construct: C53 (CDK5RAP3), human; Monomeric by native MS; source: E. coli Rosetta2(DE3)pLysS, purified (HisTrap, ion exchange, SEC)
T3 sequence (Q96JB5 whole entry): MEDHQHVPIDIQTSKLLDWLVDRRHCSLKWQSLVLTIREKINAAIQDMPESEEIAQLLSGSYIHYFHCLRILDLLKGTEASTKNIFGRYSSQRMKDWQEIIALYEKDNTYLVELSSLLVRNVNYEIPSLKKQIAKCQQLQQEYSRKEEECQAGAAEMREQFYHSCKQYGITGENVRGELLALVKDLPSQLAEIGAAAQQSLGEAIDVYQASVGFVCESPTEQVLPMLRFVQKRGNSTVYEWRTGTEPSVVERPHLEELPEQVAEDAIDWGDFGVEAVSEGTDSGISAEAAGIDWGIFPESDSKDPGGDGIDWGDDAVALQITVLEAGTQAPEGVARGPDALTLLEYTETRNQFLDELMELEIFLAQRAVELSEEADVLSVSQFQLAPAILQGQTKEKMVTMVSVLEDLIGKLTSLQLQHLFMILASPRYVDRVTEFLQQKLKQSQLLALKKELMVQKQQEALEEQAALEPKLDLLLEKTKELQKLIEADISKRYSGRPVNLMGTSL

## B1
[1]
  binding result: binds

## B2
[2]
  binding result: binds

## B3
[3]
  stoichiometry N: 1 ATG8A per AtC53 and 2 ATG8A per AtC53

## B4
[4]
  binding result: binds

## B5
[5]
  binding result: binds

## B6
[3]
  stoichiometry N: 1 ATG8A per AtC53-IDR and 2 ATG8A per AtC53-IDR and 3 ATG8A per AtC53-IDR
